Laboratory results reported in patent publication US20240141072A1 (published 2024).

How the values were obtained:
Experiment in all cases: Octet BLI; biotinylated huDLL3-IgG1 fusion on streptavidin tips; single 50 nM trispecific, conditioned medium
[1] = biological target: T1, anti-DLL3 trispecific protein with DLL3 binding domain 42D08
T1 construct: trispecific, one chain
Procedure: (§1) Using the conditioned medium with known concentrations of the anti-DLL3 trispecific proteins, the relative binding affinities of the anti-DLL3 trispecific proteins toward human DLL3 protein were measured using a method where biotinylated version of human DLL3 protein were expressed as a human IgG1 fusion protein, and the binding affinity measurement was carried out in an Octet instrument with streptavidin tips.

[2] = biological target: T2, anti-DLL3 trispecific protein with DLL3 binding domain 41G01
T2 construct: trispecific, one chain
Procedure: as §1

[3] = biological target: T3, anti-DLL3 trispecific protein with DLL3 binding domain 42A06
T3 construct: trispecific, one chain
Procedure: as §1

[4] = biological target: T4, anti-DLL3 trispecific protein with DLL3 binding domain 51D01
T4 construct: trispecific, one chain
Procedure: as §1

[5] = biological target: T5, anti-DLL3 trispecific protein with DLL3 binding domain 42C03
T5 construct: trispecific, one chain
Procedure: as §1

[6] = biological target: T6, anti-DLL3 trispecific protein with DLL3 binding domain 42C08
T6 construct: trispecific, one chain
Procedure: as §1

[7] = biological target: T7, anti-DLL3 trispecific protein with DLL3 binding domain 51D03
T7 construct: trispecific, one chain
Procedure: as §1

[8] = biological target: T8, anti-DLL3 trispecific protein with DLL3 binding domain 53C04
T8 construct: trispecific, one chain
Procedure: as §1

[9] = biological target: T9, anti-DLL3 trispecific protein with DLL3 binding domain 41D07
T9 construct: trispecific, one chain
Procedure: as §1

[10] = biological target: T10, anti-DLL3 trispecific protein with DLL3 binding domain 42G07
T10 construct: trispecific, one chain
Procedure: as §1

[11] = biological target: T11, anti-DLL3 trispecific protein with DLL3 binding domain 41B11
T11 construct: trispecific, one chain
Procedure: as §1

[12] = biological target: T12, anti-DLL3 trispecific protein with DLL3 binding domain 51B11
T12 construct: trispecific, one chain
Procedure: as §1

[13] = biological target: T13, anti-DLL3 trispecific protein with DLL3 binding domain 42C11
T13 construct: trispecific, one chain
Procedure: as §1

[14] = biological target: T14, anti-DLL3 trispecific protein with DLL3 binding domain 51F04
T14 construct: trispecific, one chain
Procedure: as §1

[15] = biological target: T15, anti-DLL3 trispecific protein with DLL3 binding domain 54B05
T15 construct: trispecific, one chain
Procedure: as §1

[16] = biological target: T16, anti-DLL3 trispecific protein with DLL3 binding domain 42F10
T16 construct: trispecific, one chain
Procedure: as §1

[17] = biological target: T17, anti-DLL3 trispecific protein with DLL3 binding domain 41D02
T17 construct: trispecific, one chain
Procedure: as §1

[18] = biological target: T18, anti-DLL3 trispecific protein with DLL3 binding domain 42D06
T18 construct: trispecific, one chain
Procedure: as §1

[19] = biological target: T19, anti-DLL3 trispecific protein with DLL3 binding domain 53B06
T19 construct: trispecific, one chain
Procedure: as §1

[20] = biological target: T20, anti-DLL3 trispecific protein with DLL3 binding domain 52D04
T20 construct: trispecific, one chain; same domain order as the TAC protein m79; also called 52D4
Procedure: as §1

[21] = biological target: T21, anti-DLL3 trispecific protein with DLL3 binding domain 42F08
T21 construct: trispecific, one chain
Procedure: as §1

[22] = biological target: T22, anti-DLL3 trispecific protein with DLL3 binding domain 51H05
T22 construct: trispecific, one chain; also called 51H5
Procedure: as §1

[23] = biological target: T23, anti-DLL3 trispecific protein with DLL3 binding domain 51H04
T23 construct: trispecific, one chain
Procedure: as §1

[24] = biological target: T24, anti-DLL3 trispecific protein with DLL3 binding domain 51E05
T24 construct: trispecific, one chain
Procedure: as §1

[25] = biological target: T25, anti-DLL3 trispecific protein with DLL3 binding domain 53B05
T25 construct: trispecific, one chain
Procedure: as §1

[26] = biological target: T26, anti-DLL3 trispecific protein with DLL3 binding domain 51E02
T26 construct: trispecific, one chain
Procedure: as §1

[27] = biological target: T27, anti-DLL3 trispecific protein with DLL3 binding domain 51A02
T27 construct: trispecific, one chain
Procedure: as §1

T26 sequence (chain, as listed by the source): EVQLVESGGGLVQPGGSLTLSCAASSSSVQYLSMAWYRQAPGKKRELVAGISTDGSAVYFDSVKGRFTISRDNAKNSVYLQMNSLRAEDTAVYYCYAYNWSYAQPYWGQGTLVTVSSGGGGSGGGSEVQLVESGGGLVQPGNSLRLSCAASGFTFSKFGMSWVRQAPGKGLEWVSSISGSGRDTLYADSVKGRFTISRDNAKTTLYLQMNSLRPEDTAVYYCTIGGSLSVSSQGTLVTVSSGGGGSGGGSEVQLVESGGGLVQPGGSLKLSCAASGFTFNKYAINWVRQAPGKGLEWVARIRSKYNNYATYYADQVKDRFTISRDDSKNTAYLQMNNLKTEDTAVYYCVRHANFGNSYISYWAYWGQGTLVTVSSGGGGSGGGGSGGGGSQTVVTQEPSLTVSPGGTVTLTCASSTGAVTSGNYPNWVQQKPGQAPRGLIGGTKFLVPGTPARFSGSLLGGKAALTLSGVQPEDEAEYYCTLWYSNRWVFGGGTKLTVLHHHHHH
T9 sequence (chain, as listed by the source): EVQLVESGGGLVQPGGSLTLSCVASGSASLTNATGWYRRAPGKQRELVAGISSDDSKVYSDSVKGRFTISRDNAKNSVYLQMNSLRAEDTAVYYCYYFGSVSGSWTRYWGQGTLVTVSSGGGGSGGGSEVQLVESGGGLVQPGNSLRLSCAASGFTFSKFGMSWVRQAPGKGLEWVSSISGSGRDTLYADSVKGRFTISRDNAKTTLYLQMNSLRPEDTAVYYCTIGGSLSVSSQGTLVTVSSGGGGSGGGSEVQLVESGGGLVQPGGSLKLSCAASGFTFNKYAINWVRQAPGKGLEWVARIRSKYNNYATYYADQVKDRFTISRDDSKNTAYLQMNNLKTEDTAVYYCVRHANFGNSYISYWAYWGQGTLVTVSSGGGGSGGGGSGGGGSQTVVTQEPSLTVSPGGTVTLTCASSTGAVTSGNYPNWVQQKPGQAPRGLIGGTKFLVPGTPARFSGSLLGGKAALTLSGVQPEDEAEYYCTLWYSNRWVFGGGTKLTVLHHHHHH
T22 sequence (chain, as listed by the source): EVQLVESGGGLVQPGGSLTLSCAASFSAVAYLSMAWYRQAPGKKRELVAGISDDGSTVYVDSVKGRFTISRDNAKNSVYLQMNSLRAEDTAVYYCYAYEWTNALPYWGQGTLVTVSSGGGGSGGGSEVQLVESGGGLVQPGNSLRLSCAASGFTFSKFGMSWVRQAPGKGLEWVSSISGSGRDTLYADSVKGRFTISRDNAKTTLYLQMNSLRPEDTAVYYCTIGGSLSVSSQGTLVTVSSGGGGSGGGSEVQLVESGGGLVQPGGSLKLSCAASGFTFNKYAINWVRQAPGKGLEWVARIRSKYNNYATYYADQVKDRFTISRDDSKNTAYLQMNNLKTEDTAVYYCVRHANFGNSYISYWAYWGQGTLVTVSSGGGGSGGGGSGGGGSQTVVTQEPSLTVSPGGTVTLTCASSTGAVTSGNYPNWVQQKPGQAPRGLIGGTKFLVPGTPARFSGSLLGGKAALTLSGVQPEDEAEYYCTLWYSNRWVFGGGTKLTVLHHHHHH
T10 sequence (chain, as listed by the source): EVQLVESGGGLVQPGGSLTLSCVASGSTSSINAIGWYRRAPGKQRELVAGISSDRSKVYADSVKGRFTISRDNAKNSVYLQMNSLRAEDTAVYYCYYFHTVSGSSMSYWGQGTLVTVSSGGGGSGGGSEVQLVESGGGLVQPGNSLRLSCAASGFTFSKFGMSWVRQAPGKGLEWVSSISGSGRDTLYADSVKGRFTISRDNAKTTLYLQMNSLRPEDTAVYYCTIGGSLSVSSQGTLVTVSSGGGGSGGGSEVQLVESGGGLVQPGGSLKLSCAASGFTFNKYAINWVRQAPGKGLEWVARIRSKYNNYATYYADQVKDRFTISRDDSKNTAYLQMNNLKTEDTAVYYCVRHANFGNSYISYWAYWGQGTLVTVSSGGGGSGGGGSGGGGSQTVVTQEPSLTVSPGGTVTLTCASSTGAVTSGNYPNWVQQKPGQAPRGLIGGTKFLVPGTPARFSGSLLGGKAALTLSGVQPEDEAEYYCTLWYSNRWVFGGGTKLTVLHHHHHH
T21 sequence (chain, as listed by the source): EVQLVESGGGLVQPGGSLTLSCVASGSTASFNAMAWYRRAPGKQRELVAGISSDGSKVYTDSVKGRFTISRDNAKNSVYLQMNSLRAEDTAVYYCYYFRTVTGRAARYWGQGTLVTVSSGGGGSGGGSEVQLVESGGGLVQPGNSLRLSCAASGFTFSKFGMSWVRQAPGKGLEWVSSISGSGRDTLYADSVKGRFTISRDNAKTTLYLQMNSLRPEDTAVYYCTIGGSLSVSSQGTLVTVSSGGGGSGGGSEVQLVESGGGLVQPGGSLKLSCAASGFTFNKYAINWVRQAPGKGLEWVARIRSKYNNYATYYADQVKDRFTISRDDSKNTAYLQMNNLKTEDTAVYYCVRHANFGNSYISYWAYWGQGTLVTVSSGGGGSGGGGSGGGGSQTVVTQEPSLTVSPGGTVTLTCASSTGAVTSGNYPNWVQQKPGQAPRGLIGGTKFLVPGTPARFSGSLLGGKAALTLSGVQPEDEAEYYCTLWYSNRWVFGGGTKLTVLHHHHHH
T16 sequence (chain, as listed by the source): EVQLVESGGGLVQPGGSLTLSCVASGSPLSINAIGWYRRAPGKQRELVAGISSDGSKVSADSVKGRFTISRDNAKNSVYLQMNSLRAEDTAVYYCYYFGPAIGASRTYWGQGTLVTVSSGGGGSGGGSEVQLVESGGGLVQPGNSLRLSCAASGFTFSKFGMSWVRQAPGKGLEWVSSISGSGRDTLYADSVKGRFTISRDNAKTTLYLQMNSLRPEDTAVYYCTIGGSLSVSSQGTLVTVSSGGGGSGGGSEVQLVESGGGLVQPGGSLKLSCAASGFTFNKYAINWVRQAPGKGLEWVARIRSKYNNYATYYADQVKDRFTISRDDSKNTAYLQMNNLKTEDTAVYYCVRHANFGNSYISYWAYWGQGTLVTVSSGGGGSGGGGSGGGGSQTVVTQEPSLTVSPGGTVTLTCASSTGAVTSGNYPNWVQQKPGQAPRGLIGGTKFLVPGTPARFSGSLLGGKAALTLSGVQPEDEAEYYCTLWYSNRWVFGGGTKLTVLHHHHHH
T27 sequence (chain, as listed by the source): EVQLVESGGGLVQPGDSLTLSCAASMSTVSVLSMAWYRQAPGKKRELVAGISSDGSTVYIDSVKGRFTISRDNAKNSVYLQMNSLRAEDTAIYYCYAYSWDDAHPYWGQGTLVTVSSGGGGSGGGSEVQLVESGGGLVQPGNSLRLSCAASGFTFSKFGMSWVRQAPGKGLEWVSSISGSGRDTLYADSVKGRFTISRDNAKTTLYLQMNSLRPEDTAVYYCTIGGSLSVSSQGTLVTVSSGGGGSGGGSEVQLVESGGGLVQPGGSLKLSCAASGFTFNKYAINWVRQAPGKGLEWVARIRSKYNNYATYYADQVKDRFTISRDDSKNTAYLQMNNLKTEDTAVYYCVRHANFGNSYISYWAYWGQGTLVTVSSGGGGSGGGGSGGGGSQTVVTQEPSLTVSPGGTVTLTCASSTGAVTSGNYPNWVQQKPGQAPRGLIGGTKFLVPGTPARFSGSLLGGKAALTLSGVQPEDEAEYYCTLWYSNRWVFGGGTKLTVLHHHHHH
T18 sequence (chain, as listed by the source): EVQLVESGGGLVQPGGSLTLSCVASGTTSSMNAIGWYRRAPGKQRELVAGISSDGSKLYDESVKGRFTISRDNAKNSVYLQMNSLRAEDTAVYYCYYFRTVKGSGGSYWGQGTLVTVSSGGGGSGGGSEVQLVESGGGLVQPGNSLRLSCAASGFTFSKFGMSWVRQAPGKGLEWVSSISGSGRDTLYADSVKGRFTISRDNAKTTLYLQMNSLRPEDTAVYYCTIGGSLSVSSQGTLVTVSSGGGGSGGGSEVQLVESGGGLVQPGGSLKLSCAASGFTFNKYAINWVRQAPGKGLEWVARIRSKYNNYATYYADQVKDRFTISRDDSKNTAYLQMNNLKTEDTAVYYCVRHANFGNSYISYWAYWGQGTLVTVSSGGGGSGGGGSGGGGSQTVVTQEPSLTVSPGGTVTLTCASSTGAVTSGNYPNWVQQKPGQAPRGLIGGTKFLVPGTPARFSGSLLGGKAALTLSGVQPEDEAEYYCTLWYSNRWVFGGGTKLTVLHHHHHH
T20 sequence (chain, as listed by the source): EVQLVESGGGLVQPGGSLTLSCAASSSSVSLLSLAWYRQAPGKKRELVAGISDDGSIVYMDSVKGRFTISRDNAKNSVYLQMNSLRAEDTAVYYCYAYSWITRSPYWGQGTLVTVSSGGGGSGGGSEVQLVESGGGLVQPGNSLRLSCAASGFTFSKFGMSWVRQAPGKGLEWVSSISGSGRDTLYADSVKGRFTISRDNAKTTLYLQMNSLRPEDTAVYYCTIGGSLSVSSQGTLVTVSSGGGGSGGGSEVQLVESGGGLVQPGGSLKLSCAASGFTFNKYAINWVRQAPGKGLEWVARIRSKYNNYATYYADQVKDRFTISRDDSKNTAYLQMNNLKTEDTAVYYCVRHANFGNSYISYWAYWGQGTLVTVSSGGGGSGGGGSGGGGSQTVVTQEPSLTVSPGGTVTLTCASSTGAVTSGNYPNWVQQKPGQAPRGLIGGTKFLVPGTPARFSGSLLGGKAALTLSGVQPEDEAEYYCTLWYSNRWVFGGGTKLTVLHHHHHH

Kd [1]: 1.3 nM | Kd [2]: 4 nM | Kd [3]: 1 nM | Kd [4]: 7.9 nM | Kd [5]: 0.88 nM | Kd [6]: 1.8 nM | Kd [7]: 3.3 nM | Kd [8]: 0.5 nM | Kd [9]: 34 nM | Kd [10]: 1.3 nM | Kd [11]: 9.9 nM | Kd [12]: 2.4 nM | Kd [13]: 2.3 nM | Kd [14]: 6.7 nM | Kd [15]: 0.76 nM | Kd [16]: 17 nM | Kd [17]: 2.7 nM | Kd [18]: 1.5 nM | Kd [19]: 0.71 nM | Kd [20]: 0.5 nM | Kd [21]: 3.2 nM | Kd [22]: 0.67 nM | Kd [23]: 1 nM | Kd [24]: 0.97 nM | Kd [25]: 0.6 nM | Kd [26]: 3.5 nM | Kd [27]: 1.2 nM
B1: biotinylated human DLL3 protein expressed as a human IgG1 fusion protein (Fc fusion, not shown: a dimerising Fc or GST)
chain: AGVFELQIHSFGPGPGPGAPRSPCSARLPCRLFFRVCLKPGLSEEAAESPCALGAALSARGPVYTEQPGAPAPDLPLPDGLLQVPFRDAWPGTFSFIIETWREELGDQIGGPAWSLLARVAGRRRLAAGGPWARDIQRAGAWELRFSYRARCEPPAVGTACTRLCRPRSAPSRCGPGLRPCAPLEDECEAPLVCRAGCSPEHGFCEQPGECRCLEGWTGPLCTVPVSTSSCLSPRGPSSATTGCLVPGPGPCDGNPCANGGSCSETPRSFECTCPRGFYGLRCEVSGVTCADGPCFNGGLCVGGADPDSAYICHCPPGFQGSNCEKRVDRCSLQPCRNGGLCLDLGHALRCRCRAGFAGPRCEHDLDDCAGRACANGGTCVEGGGAHRCSCALGFGGRDCRERADPCAARPCAHGGRCYAHFSGLVCACAPGYMGARCEFPVHPDGASALPAAPPGLRPGDPQRYL
modifications: biotinylated
